# Measurements as given in paper PMC5072618.
# Assays:
# [1] = target: IFI16 (gamma-interferon-inducible protein 16) (human (endogenous in HMVEC-d, HFF, BJAB, BCBL-1)) (UniProt Q16666); assay: co-IP; whole cell lysates of KSHV infected HMVEC-d cells (4 h; 30 min, 4 and 24 h for the p300 blot); IP with anti-Ran, anti-IFI16, anti-STING or anti-ASC antibodies; cells untreated or electroporated with siC, sicGAS or siASC
# [2] = target: IFI16 (gamma-interferon-inducible protein 16) (human (endogenous in HMVEC-d, HFF, BJAB, BCBL-1)) (UniProt Q16666); assay: co-IP; whole cell lysates of KSHV infected HMVEC-d cells electroporated with siBRCA1 (48 h); IP with anti-IFI16 antibody
# Sequence of UniProt Q16666 (Q16666 whole entry): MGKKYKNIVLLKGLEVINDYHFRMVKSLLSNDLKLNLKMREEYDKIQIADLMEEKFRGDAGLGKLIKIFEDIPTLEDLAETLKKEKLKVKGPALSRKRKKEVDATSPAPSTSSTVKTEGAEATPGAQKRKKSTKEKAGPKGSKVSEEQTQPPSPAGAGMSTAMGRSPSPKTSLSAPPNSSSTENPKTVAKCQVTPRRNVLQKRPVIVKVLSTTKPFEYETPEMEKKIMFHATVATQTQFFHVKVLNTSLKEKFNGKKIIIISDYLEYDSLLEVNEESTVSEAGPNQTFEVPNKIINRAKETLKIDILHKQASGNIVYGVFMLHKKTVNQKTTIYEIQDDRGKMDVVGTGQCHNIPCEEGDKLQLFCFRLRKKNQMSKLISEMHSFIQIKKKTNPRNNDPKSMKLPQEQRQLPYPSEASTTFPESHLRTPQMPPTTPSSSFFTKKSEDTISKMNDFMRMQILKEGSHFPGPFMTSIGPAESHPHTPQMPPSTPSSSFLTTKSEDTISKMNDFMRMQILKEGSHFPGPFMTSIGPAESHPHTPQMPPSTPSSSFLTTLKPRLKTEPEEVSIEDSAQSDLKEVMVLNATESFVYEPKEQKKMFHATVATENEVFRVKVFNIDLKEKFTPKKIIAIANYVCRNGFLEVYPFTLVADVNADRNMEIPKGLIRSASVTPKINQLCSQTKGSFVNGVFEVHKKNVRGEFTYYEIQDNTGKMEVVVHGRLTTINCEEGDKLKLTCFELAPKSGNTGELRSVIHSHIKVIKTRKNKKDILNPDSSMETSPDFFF
substance,measurement,setting,value
histone H2B (from UniProt P62807 1-126) (natural protein),reduction of the IFI16-H2B co-precipitate on cGAS knockdown,[1],25%
same,reduction of the IFI16-H2B co-precipitate on BRCA1 knockdown,[2],40%
